These results are taken from PMC5915598, “Structural basis for the activation of acid ceramidase” (Nature Communications, 2018).

For the test, the target named is T1, human acid ceramidase (aCDase, ASAH1) β-subunit (human, UniProt Q13510 143-395, N-glycosylated (insect cell glycans); disulfide C340 to C31 of the α-subunit; disulfide C388/C392).
T1 construct: acid ceramidase, human, UniProt Q13510; the construct spans residues 22-395 and autocleaves before Cys 143, which becomes the N terminus of the β-subunit: residues 143-395; Made as one chain with the α-subunit and set free by autocleavage; also called 30 kDa β-subunit
T1 sequence (looked up): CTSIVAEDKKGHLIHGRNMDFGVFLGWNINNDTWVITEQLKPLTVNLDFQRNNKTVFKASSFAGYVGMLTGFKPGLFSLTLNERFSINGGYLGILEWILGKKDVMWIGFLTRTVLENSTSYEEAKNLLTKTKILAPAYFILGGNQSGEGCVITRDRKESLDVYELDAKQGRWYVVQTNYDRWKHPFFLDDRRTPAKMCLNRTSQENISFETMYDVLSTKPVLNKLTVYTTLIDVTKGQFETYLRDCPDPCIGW
In words: crystal structure; autocleaved human aCDase, incubated with 1 mM ceranib-2 and 1 mM Triton X-100, crystallised at 22 °C in 100 mM sodium phosphate-citrate pH 4.3, 200 mM Li2SO4, 20% PEG 1000; the two subunits come from one chain and are also linked by a disulfide. Conditions: both partners purified.

B1: human acid ceramidase (aCDase, ASAH1) α-subunit (domain or fragment, UniProt Q13510 22-142, looked up)
chain: QHAPPWTEDCRKSTYPPSGPTYRGAVPWYTINLDLPPYKRWHELMLDKAPVLKVIVNSLKNMINTFVPSGKVMQVVDEKLPGLLGNFPGPFEEEMKGIAAVTDIPLGEIISFNIFYELFTI
modifications: N-glycosylated (insect cell glycans); disulfide C31 to C340 of the β-subunit
notes: acid ceramidase, human, UniProt Q13510 variant Ile93Val; the construct spans residues 22-395 and autocleaves at the peptide bond between Ile 142 and Cys 143, so the α-subunit is residues 22-142; no removal of the tag is told; Residues 141 and 142 are disordered in the structure; also called 13 kDa α-subunit
Turning to B1, the binding result is recorded as “binds”.
